Assay results as given in patent publication KR20240034954A (dated 2024).

How the values were obtained:
[1] = molecular target: T1, 서열번호 2의 아미노산 서열을 포함하는 SIRPα 변이체 (Homo sapiens (Human), UniProt P78324 31-149); test: indirect ELISA, vSIRPα (SEQ ID NO 2) coated at 1.0 ug/ml, anti-mouse IgG Fcγ-peroxidase secondary
T1 construct: Engineered SIRPα variant; also called vSIRPα; vSIRPα antigen
T1 chain: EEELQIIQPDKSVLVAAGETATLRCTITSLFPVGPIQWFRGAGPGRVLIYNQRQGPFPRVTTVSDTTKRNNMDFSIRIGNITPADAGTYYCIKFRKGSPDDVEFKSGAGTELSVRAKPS

야생형의 SIRPα = molecular target: T2, 야생형의 SIRPα (Homo sapiens (Human), UniProt P78324 31-149, limits assumed); test: western blot
T2 construct: also called wtSIRPα; wild-type SIRPα

- binding result [1]: binds
- binding result (야생형의 SIRPα): no binding
B1: 항-vSIRPα 단일클론 항체 (SIRPα 변이체 특이적인 단일클론 항체) (antibody, V domains shown)
VH: EVQLQQSGPELVKPGASVKISCKASGYSFTGYYMHWVKQSHVKSLEWIGRINPYNGATNYNQNFKDKASLTLDKSSSTAYVELHSLTSEDSAVYYCTRNDGYYWYFDVWGAGTTVTVSS
VL: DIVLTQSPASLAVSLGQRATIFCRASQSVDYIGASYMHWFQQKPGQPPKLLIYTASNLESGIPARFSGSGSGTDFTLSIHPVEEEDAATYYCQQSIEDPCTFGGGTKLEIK
notes: Two clones were selected; also called 제작된 2종 항체; 개발한 항체 2종
